Experimental data taken from a protein production outcome set (Wang et al. 2014).

assay: label from the status in PepcDB records
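Further: failed if final PepcDB status was selected cloned or expressed and not failed if soluble or beyond.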

**Q.** For “MGTRRRRGRKAIAGLPGYLLLLVLVLVWLFQELRPGPVPPAETGEAEVYFMPEEGPRAKARLLALMDGARESLEGAFYEFRDLEVAQGLLRAKARGVRVRLYGESDYREDFRRYLVAASLGQREEPPRVRFAELKERVKPLSLDCEEVVGIPICYDEREGFMHHKFLVVDGRAVWTGSTNMTWNAFARNNENSLLLPSPTLAQGYAREFEALFGGQKEGLGQPVAFALEGVEGVAYFSPRGGRLAREALLKRLSEAQREVLVAAFVLTDREVLEALLQARRRGAEVKVLLETRNLGTSREEALLEEGLEVRQDANPYTMHHKVMLLDGTYVVTGSYNFSVRAHEVNNENLLVLKSPSLAERYRKEVLRLWEAGSPL”, which protein production is on record?
**A.** The protein production was “failed”.

**Q.** Which protein production does the source give for “MGTRWFAKNTTMSKNSIVIGVDLDGVCADFYGRMRQIASEWFERPIDELPEEVSWGLSEWGITNPSQYDSLHRFAVTQRELFSSMEAIPGARKYLRQLSDEGFRIRIITHRLFIHYFHATAVQQTVNWLDSHGIPYWDLCFVKEKTQVGADIYIEDSPENVAQLRGRGLFTICFGNSTNRHIEELRAASWQDVYDMIKAFVT” here?
**A.** The protein production was “failed”.

**Q.** For “MGTYRKRFNEKARSGHMAKLKELKRIRNKQFTRQDENDERVENPDSAPAESSTTEPNANAEILEPLTEEEKKMKKRKLQELFTPKESKVSRLKKKRLDKFIEHQLKREERKTIIGKLQDYKIDTSLLTSSKRLGEGRQTKKEEFKEALSLERQGRGNEQTNEILYEEYEPKVWDEYGEGGSSEDDDGEDDFEASFGSMPKPTDNEEKKSSGFIDHRPAKFGGSGLSFGFSNIKVINKESKTPKKKYNWRQRVEMEELKKHGKEDEMDFDTTSEDDDEEEDQEEEDKMHPSENPLEEVESADSETGSEKFDQNDVANEFKDWANQEIKKLEGRDQELVTPTLNIDYKPIIRKEDLDDGLQEAYVPINENSTRKAFYVEVSRSDEIQKARIQLPVFGEEHKIMEAIHHNDVVIICGETGSGKTTQVPQFLYEAGFGAEDSPDYPGMVGITQPRRVAAVSMAERVANELGDHGHKVGYQIRFDSTAKEDTKVKFMTDGVLLREMMHDFKLTKYSSIIIDEAHERNINTDILIGMLSRCVRLRAKLHKENPIEHKKLKLIIMSATLRVSDFSENKTLFPIAPPVLQVDARQFPVSIHFNRRTAFNYTDEAFRKTCKIHQKLPPGAILVFLTGQQEITHMVKRLRKEFPFKKNSKYNKDLETPVSKMGINSKTTDLEAEDIDFSVQVIDQDKFKSAIRYEEDEGNSGNGEDEEDEEEEGFEEVLTEGQTANDPLYVLPLYSLLPTKEQMRVFQKPPQGSRLCIVATNVAETSLTIPGVRYVVDSGRSKERKYNESNGVQSFEVGWVSKASANQRSGRAGRTGPGHCYRLYSSAVFEHDFEQFSKPEILRMPVESIVLQMKSMAIHNIINFPFPTPPDRVALSKAIQLLQYLGALDNKEMITEDGKKMSLFPLSPRFSKMLLVSDEKACLPYIVAIVSALSVGDPFINEFELGINEISRKPNPDENLDDKIREHDESTPGMDPELKKELRSKFYKSRSQFSKLDKFSDVFRLLSVVSAMDYVPKEQKEIFMKKNFLRGKLMEEIVKLRKQLMYIIKSNTSKENIAVVIRNEDLKSDIPSVIQIKLLKQMICAGFVDHVAVRADVLFPDDAKITNRTSIINIPYIPVLATRTPNIEDCFVYIHPTSILNNLGEMPPKYMLYYSLHLGGNNKTRMNTLCDIASTPLANIARKGLLLTYSKPLTGQGLKTVNLSPTERYCYVVPRFGSTVDNDLKIGWDLNPIAVHQKKQKGQWTVIKFITRKGFQTITGEEKEKK”, which protein production is on record?
**A.** The protein production was “failed”.

**Q.** For “MGVALLLLVGGAELLVRSALRLAQRLHVRPLIIGLSLVAFGSTAPQLTVSLQAAYQGAPDVAVGSVIGSNIFNVLVILGLAALIIPLRVSRQLVRLDIPLMILASGLVYALSANAHLGRVEGALLLLGLAGYLAMLWHQSRHYARTYPAPDAARSGAGRFWSGTLLQILVGLGLLSLAGHLLLEAAIEVATDLGLSERIIGLTVVAICTSLPELAAALIAALRGEREIAVGTVIGSNLFNLLAVLGLTALITPEPLSISPNALSFDLPVMLGVAALSLPVFYSGYRITRAEGLVFLCLYLAYGLHVAAFTMGMPLAGRLERLMLFYVLPVLATVLLYTTVRAWRRQH”, which protein production is on record?
**A.** Its protein production is “failed”.

**Q.** Which protein production does the source give for “MGVKFTLMGTTAGLGVPAFHCNCIACREARADPFWARTRSGAVLETGKENILIDASPDLSKQLLRERIQSVDYLFVTHWHYDHFGGIGDLEYYVKLERKWPVALFLPPSAVDDFAKVYPFLEEVFVIEPWEFGKSYAFEGIELTVLPARHSIETGGILLAGSKRAAYFTDTAGLPAPTARQLQGVDTLICDATFNGANWFPHSHMNWQEAIALGESIRAQHTVLTHLAMHYSTPITAAQLQEKLKDYAQVSLAYDGMVLTI” here?
**A.** The protein production was “failed”.

**Q.** For “MGVLRVGLCPGLTEEMIQLLRSHRIKTVVDLVSADLEEVAQKCGLSYKALVALRRVLLAQFSAFPVNGADLYEELKTSTAILSTGIGSLDKLLDAGLYTGEVTEIVGGPGSGKTQVCLCMAANVAHGLQQNVLYVDSNGGLTASRLLQLLQAKTQDEEEQAEALRRIQVVHAFDIFQMLDVLQELRGTVAQQVTGSSGTVKVVVVDSVTAVVSPLLGGQQREGLALMMQLARELKTLARDLGMAVVVTNHITRDRDSGRLKPALGRSWSFVPSTRILLDTIEGAGASGGRRMACLAKSSRQPTGFQEMVDIGTWGTSEQSATLQGDQT”, which protein production is on record?
**A.** The protein production was “failed”.

**Q.** Which protein production does the source give for “MGVPEINEYGQQVNDLVPGWQGAQVLRRTALNGRFCRLEPLDVDRHAADLFAAYALGDNSDWTWLASTRPESVTATAHWIAGKVNDDVLVPYAVVDLRSEQAVGIVSYMAIEREMGTVEIGHVTWSRRMKNTPLGTEAVWLLLKNGFDHGYRRLEWKCDSMNVASRRAAERLGFSWEGRLRQRLVRKGRTRDSDMLSIIDGEWPARDAALRAWLAAENFTADGQQIKRLEAFR” here?
**A.** Its protein production is “failed”.

**Q.** For “MGVSFKISKVGRKFRPKISTELATPDSPKAIVLSGKPKATDDSNIGDVSGFSKPSLPDISPDHEVSFILSLYPNGYSIGKTSEAMQQISFRDVPKVLHPYDRAAEGLLSAIEAGRLPGDILEDIPCKFVDGVVICEVHDYRKHTSSQVSPVINKLRLKMSLENVVKDIPSMSDNSWTYGDLMVIMVARGL”, which protein production is on record?
**A.** Its protein production is “failed”.

**Q.** With “MGVTLAKGGNVSLSKAAPNLTQVLVGLGWDARSTTGAPFDLDASALVCSSGRVLGDEWFVFYNQLKSPDGSIEHTGDNLTGEGDGDDESLLVDLSKVPAHCDKIVFPVSIHMADERGQTFGQVSNAFIRVVNQADGQELARYDLSEDASTETAMIFGELYRYQGEWKFRAVGQGYASGLRGIALDFGVNVS” as the sequence, how does the protein production read?
**A.** The protein production was “not failed”.

**Q.** Which protein production does the source give for “MGVTLEGQRKESIWVLMRRQRARRALVKKIMIRPRKSVEASRRPCRAIHRRVKTLKELVPNTKTSEGLDGLFRQTADYILALEMKVKVMQTMVQVLTETNCV” here?
**A.** The protein production was “failed”.

**Q.** For “MGWEFFSLETLQELARQYGYGAVFFGIALENAGIPIPGETITLLGGFLAGSGDLSYGGVLIAAIAGAVLGDSCGYWVGRWGGWPLLTRAAQLFNIPQEKLDQARHKFSQNGAAAVFFGRFVTLLRIFAGPMAGIVRMPYGKFLLYNIGGASVWAAITVSLAYFLGRVVTIEQIIAWTTQFSWFALAAVVGMVGIYFVFHFLQKRFDQTIESTIGDRPQ”, which protein production is on record?
**A.** Its protein production is “failed”.

**Q.** For “MGWFFVFCAAISEIVGVIGLKMYSKDKTLANGAIYIGGFATSFAFLYTSFLFLQVSVAYAVWIGIGTAGAVLLNMFLFGESKSKARIISVFLIVCGVTGLKALS”, which protein production is on record?
**A.** The protein production was “failed”.

**Q.** With “MGYPPIRRFEYEHRGTETFTGRSPVPCHHAGIMSLYLRKQAYGVAPMKKIILSTIAALVASGSVFASYGTAAAQDYPYRPRYDRGYDRGGPPPPPYREHRRHNDGAAIAGGLAAGVIGGLIGGAIANGNGGPRYYEPPPPPRCWFEDRRVPNAYDGGWHMESMRVCN” as the sequence, how does the protein production read?
**A.** Its protein production is “failed”.

**Q.** With “MGYPPPTRRLGDKKRYHYSNNPNRRHPSAVYSKNSFPKSSNNGFVSSPTADNSTNPSVTPSTASVPLPTAAPGSTFGIEAPRPSRYDPSSVSRPSSSSYSSTRKIGSRYNPDVERSSSTTSSTPESMNTSTITHTNTDIGNSRYSRKTMSRYNPQSTSSTNVTHFPSALSNAPPFYVANGSSRRPRSMDDYSPDVTNKLETNNVSSVNNNSPHSYYSRSNKWRSIGTPSRPPFDNHVGNMTTTSNTNSIHQREPFWKANSTTILKSTHSQSSPSLHTKKFHDANKLDKPEASVKVETPSKDETKAISYHDNNFPPRKSVSKPNAPLEPDNIKVGEEDALGKKEVHKSGREIAKEHPTPVKMKEHDELEARAKKVSKINIDGKQDEIWTTAKTVASAVEVSKESQKELTRSVERKESPEIRDYERAYDPKALKTDVTKLTVDNDNKSYEEPLEKVEGCIFPLPKAETRLWELKNQKRNKIISEQKYLLKKAIRNFSEYPFYAQNKLIHQQATGLILTKIISKIKKEEHLKKINLKHDYFDLQKKYEKECEILTKLSENLRKEEIENKRKEHELMEQKRREEGIETEKEKSLRHPSSSSSSRRRNRADFVDDAEMENVLLQIDPNYKHYQAAATIPPLILDPIRKHSYKFCDVNNLVTDKKLWASRILKDASDNFTDHEHSLFLEGYLIHPKKFGKISHYMGGLRSPEECVLHYYRTKKTVNYKQLLIDKNKKRKMSAAAKRRKRKERSNDEEVEVDESKEESTNTIEKEEKSENNAEENVQPVLVQGSEVKGDPLGTPEKVENMIEQRGEEFAGELENAERVNDLKRAHDEVGEESNKSSVIETNNGVQIMDPKGAVQNGYYPEETKELDFSLENALQRKKHKSAPEHKTSYWSVRESQLFPELLKEFGSQWSLISEKLGTKSTTMVRNYYQRNAARNGWKLLVDETDLKRDGTSSESVQQSQILIQPERPNINAYSNIPPQQRPALGYFVGQPTHGHNTSISSIDGSIRPFGPDFHRDTFSKISAPLTTLPPPRLPSIQFPRSEMAEPTVTDLRNRPLDHIDTLADAASSVTNNQNFSNERNAIDIGRKSTTISNLLNNSDRSMKSSFQSASRHEAQLEDTPSMNNIVVQEIKPNITTPRSSSISALLNPVNGNGQSNPDGRPLLPFQHAISQGTPTFPLPAPRTSPISRAPPKFNFSNDPLAALAAVASAPDAMSSFLSKKENNN” as the sequence, how does the protein production read?
**A.** Its protein production is “failed”.

**Q.** Which protein production does the source give for “MHAPAILRQSGIDALLAGDGSPEIMVTDSPSPPVKRSKIWELSRTYHCPVIGLCLPASDLERFAKRFHFKASINNAHDLHVEAVCRVTSRNVVSETIHKYLDRLYESHIKQFDAAKTDSEVLALWETCFTNERIAGPLWAALTHKRISSEGREQIHDRVHMHMHEAVAELSATQHRLNQAEQMLKELAGQLEQIREKHVQTESRLRQQLQQAAAEIKQLQQSRRESETTRQRLETLESGQAILRMGQRLMQLTVENEQLQIKAAQADDLKQSLKNACHNLTELYHERDTLRVERDTLENLLLTLNSGSTTDTETADTTETKMAAYECILCVGGRSTLLPQYRTLARQLGLKLSHHDGGQEDALSRLPEMIYGAAAVICPTDYVSHAAYYQVKRLCRLGHKPCLLFKGTGVSSFAAALTKITSGQASINSSPVDTVETTT” here?
**A.** Its protein production is “failed”.

**Q.** For “MHARDVMVSPVVTVGPNATVRQVAQILLERRISAVPVVDADNKVLGIVSEGDLLHRAESGTERSPSWWLRLLTGDAQLATDYVKSHSIKVQDVMTQEVATAAPETPLHEIAMLLEERQIKRVPIVNKEGQLVGIVSRANLLQTIASARPKLEISLPDSVIRKRFFEELRKQPWAHTFNVNATVQNGVVDIWGFAPSVAERTAIRVAAEAIPGVATVNDHLLETPAFVY”, which protein production is on record?
**A.** The protein production was “failed”.

**Q.** For “MHATTLPSGIRAGRHERTPPPMTVQTGQTRQTRSRTWTRVTGTAAVVAAALTATVTPSVAAPAETPPASVTAAAADVGYDTWQRDCRAVMDAALPYLKERIAGSAPGEKQAVVLDIDNTSLETDFGFSYPQPANRPVLEVAEYAQEHGVALFFVTARPGIIEAPTEWNLAHAGYESSGLYVRGFLDLFKDVAEYKTEQRAEIESKGYTIIANIGNSASDLSGGHAEKTFKLPDYDGQLS”, which protein production is on record?
**A.** The protein production was “failed”.

**Q.** For “MHCLIHVPELMNVKGIGGFENLCDLELLTSYLEEVDLIMTNHSTKRSSRSFKISRDHSTTRSSRAHHHFTSPLDPERSSNSITPLDCILDDKLQSLLHSALNQTLEHKEEKKIPAIHSSSHSTTLVEYSS”, which protein production is on record?
**A.** Its protein production is “failed”.
